For five molecules, A450 results are on record in patent US20070178531A1 (BIOCHECK, published 2007).

Test [1] deals with T1, glutathione S-transferase (GST) (UniProt P08515 1-218 = GST).
T1 construct: also called carrier protein GST
In words: ELISA, Ab 0.100 µg/ml. The method, then:
(§1) The rabbit monoclonal anti-human Id3 (clone #3-3) and the rabbit monoclonal anti-mouse/human Id3 (clones #6-1, 16-1, 17-3, and 42-1) produced in Example 6 were tested reactivity against the following antigens: mouse Id1:His, human Id1:His, mouse Id2:His, human Id2:His, mouse Id3:His, human Id3:His, mouse Id4:His, human Id4:His and GST.
(§2) 1. Microtiter wells (prepared in accordance with Example 6) were coated (0.1 μg/well) with mouse Id1:His, human Id1:His, human Id2:His, human Id3:His, and 1.0 μg/well with GST. [0155] 2. Antibody Diluent: 0.25% (w/v) BSA in 0.015M KPO₄ Buffer, 0.85% (w/v) NaCl, 0.1% (w/v) NaN₃, pH=7.40 [0156] 3. Rabbit monoclonal anti-human Id3 (clone #3-3) prepared in Example 7 was diluted to […] with the antibody diluent. […] 4. Rabbit monoclonal anti-mouse/human Id3 (clones #6-1, 16-1, 17-3, 42-1) prepared in Example 7 was diluted to 0.005, 0.010, 0.025, 0.05, 0.10, 0.25, and 0.50 μg/ml with the antibody diluent. […] 5. Conjugate Diluent: 50% (v/v) which consists of an aqueous solution containing Fetal Bovine Serum in 0.05 M Tris, 1% (v/v) Proclin-300, pH 7.6. [0159] 6. Conjugate: Goat anti-rabbit IgG (H+L)-HRP conjugate. [0160] 7. TMB reagent. […] 8. Stop solution (1 N HCI). Method
(§3) 1. Dispense 100 μL of antibody diluent, diluted rabbit monoclonal human Id3, and mouse/human Id3 hybridoma supernatants into appropriate wells. […] 2. Incubate at room temperature with mechanical shaking at 750 rpm for 90 minutes. [0165] 3. Remove the incubation mixture by flicking plate content into an appropriate waste container followed by rinsing the wells 5 times with distilled water. [0166] 4. Strike the wells sharply onto absorbent paper or paper towels to remove all residual water droplets. [0167] 5. Dispense 100 μL of 1:50,000 Goat Anti-Rabbit IgG-HRP Conjugate Reagent into each well. Gently mix for 5 seconds. [0168] 6. Incubate at room temperature with mechanical shaking at 750 rpm for 90 minutes. [0169] 7. Repeat procedures 3 and 4. [0170] 8. Dispense 100 μL of TMB Reagent into each well. Gently mix for 5 seconds. [0171] 9. Incubate at room temperature with mechanical shaking at 750 rpm for 20 minutes. […] 10.
Background: In an ELISA, binding on a coated surface is turned into a signal by an enzyme label.

The target of test [2] is T2, Human Id2: Histidine (human, UniProt Q02363 1-134, limits assumed).
T2 construct: Fusion protein made in E. coli from vector pGW07; also called h-Id2: His; not shown: His tag
T2 sequence (looked up): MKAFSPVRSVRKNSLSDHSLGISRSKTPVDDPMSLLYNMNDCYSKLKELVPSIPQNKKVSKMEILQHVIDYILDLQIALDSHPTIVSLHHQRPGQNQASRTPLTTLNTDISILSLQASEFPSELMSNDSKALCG
In words: ELISA, Ab 0.100 µg/ml. As for the experimental part: as §1, §2, §3

Test [3] addresses T1, glutathione S-transferase (GST). As to the kind of experiment: ELISA, Ab 0.250 µg/ml. The method, then:
as §1, §2, §3

Test [4] has as its target T3, Mouse Id2: Histidine (mouse, UniProt P41136 1-134, limits assumed).
T3 construct: Fusion protein made in E. coli from vector pGW07; also called m-Id2: His; not shown: His tag
T3 sequence (looked up): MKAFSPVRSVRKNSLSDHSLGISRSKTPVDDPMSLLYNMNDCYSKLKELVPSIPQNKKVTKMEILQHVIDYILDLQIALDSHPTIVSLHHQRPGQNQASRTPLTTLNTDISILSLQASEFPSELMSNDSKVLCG
As to the kind of experiment: ELISA, Ab 0.250 µg/ml. As for the experimental part:
as §1, §2, §3

Test [5] concerns the target T2, Human Id2: Histidine. In words: ELISA, Ab 0.250 µg/ml. The method, then:
as §1, §2, §3

Test [6] addresses T4, Human Id1: Histidine (human, UniProt P41134 1-155, limits assumed).
T4 construct: Fusion protein made in E. coli from vector pGW07; also called h-Id1: his; not shown: His tag
T4 sequence (looked up): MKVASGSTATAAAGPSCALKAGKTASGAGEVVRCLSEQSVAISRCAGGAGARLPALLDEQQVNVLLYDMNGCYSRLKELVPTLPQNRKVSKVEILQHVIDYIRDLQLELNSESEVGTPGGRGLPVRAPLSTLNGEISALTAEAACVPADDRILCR
In words: ELISA, Ab 0.250 µg/ml. As for the experimental part:
as §1, §2, §3

For test [7], the target named is T5, Mouse Id1: Histidine (mouse, UniProt P20067-2 1-148, limits assumed).
T5 construct: Fusion protein made in E. coli from vector pGW07; also called m-Id1-His; not shown: His tag
T5 sequence (looked up): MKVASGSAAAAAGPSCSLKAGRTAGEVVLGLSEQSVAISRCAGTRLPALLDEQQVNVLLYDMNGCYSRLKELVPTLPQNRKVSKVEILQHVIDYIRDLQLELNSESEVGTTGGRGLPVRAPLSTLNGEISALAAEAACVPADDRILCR
In words: ELISA, Ab 0.250 µg/ml. The method, then:
as §1, §2, §3

Test [8] addresses T6, Mouse Id3: Histidine (mouse, UniProt P41133 1-119).
T6 construct: Fusion protein made in E. coli from vector pGW07; also called m-Id3: His; Mouse Id3 (coated wells); not shown: His tag
T6 sequence: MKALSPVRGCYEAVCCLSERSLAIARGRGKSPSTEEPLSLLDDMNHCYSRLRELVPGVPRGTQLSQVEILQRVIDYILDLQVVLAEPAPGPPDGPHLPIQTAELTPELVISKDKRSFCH
In words: ELISA, Ab 0.100 µg/ml. The method, then:
as §1, §2, §3

The target in test [9] is T7, Human Id3: Histidine (human, UniProt Q02535 1-119 at identity 1.00)).
T7 construct: Fusion protein made in E. coli from vector pGW07; also called h-Id3: His; Human Id3 (coated wells); not shown: His tag
T7 chain: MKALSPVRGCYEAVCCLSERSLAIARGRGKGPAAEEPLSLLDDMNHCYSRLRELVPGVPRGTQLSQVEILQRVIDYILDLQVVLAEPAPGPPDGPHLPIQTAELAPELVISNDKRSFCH
As to the kind of experiment: ELISA, Ab 0.100 µg/ml. As for the experimental part:
as §1, §2, §3

Test [10] concerns the target T6, Mouse Id3: Histidine. In words: ELISA, Ab 0.250 µg/ml. The method, then: as §1, §2, §3
Test [11] concerns the target T7, Human Id3: Histidine. In words: ELISA, Ab 0.250 µg/ml. As for the experimental part:
as §1, §2, §3

T1 sequence (P08515 whole entry): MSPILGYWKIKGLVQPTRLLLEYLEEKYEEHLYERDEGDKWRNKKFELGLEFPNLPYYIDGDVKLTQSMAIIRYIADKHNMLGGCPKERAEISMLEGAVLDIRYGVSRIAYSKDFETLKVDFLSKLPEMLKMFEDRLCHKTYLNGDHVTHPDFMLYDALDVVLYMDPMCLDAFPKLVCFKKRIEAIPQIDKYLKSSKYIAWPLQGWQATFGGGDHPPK

B1: rabbit monoclonal anti-human Id3, clone #BCH-4/#3-3 (antibody, V domains shown)
VH: QSVEESGGRLVTPGTPLTLTCTVSGIDLSSYAMSWVRQAPGKGLEWIGVIFPSNNVYYASWAKGRFTISKTSTTVDLKITSPTTEDTATYFCASMGAFDSWGPGTLVTVSS
VL: QVLTQTPSPVSAAVGGTVTINCQASQSIYNDNDLAWFQQKPGQPPKLLIYDASTLTSGVPSRFKGSGSGTQFTLTISDLDCDDAATYYCAARYSGNIYGFGGGTEVVVK
notes: Rabbit IgG from a rabbit hybridoma; also called h Id3 MoAb 3-3
Turning to B1, the A450 amounted to 0.048 A450 in test [1]; 0.048 A450 in [2]; 0.048 A450 in test [3]; 0.051 A450 in test [4]; 0.054 A450 in test [5]; 0.047 A450 in test [6]. This molecule registered an A450 in test [7] of 0.048 A450.

B2: rabbit monoclonal anti-mouse/human Id3, clone #BCH-4/#16-1 (antibody, V domains shown)
VH: QSVEESGGRLVTPGTPLTLTCTASGFSLSSYYIHWVRQAPGKALEWIGYISDGGTTYYASWAKGRFTISKTSSTTVDLKMTSLTTEDTATYFCARQGFNIWGPGTLVTVSL
VL: AVLTQTPSPVSAAVGGTVTISCQSSQSVYNNNWLSWFQQKSGQPPKLLIYETSKLESGVPSRFKGSGSGTQFTLTIIDVQCDDAATYYCLGGYWTTSDNNIFGGGTEVVVK
notes: Rabbit IgG from a rabbit hybridoma; also called m/h Id3 MoAb 16-1
As for B2, the A450 in test [1] is 0.049 A450; in test [2], 0.048 A450; in [8] it was 2.28 A450; in test [9] it was 1.99 A450; in test [3] it was 0.048 A450; in test [4], 0.063 A450. The A450 in [5] came out at 0.052 A450; in test [10], 3.21 A450; in test [6] it was 0.045 A450; in test [11] it was 2.83 A450; in [7] it was 0.047 A450.

B3: rabbit monoclonal anti-mouse/human Id3, clone #BCH-4/#6-1 (antibody, V domains shown)
VH: QSVEESGGRLVTPGTPLTLTCTASGFSLSNVYIHWVRQAPGKGLEWIGYISDGDTARYATWAKGRFTISKTSSTTVNLKMTSLTTEDTATYFCARQGFNIWGPGTLVTVSL
VL: AVLTQTPSPVSAAVGGTVSISCQSSQSVWNNNWLSWFQQKPGQPPKLLIYETSKLESGVPSRFKGSGSGTQFTLTISDVQCDDAATYYCLGGYWTTSDNNVFGGGTEVVVK
notes: Rabbit IgG from a rabbit hybridoma; also called m/h Id3 MoAb 6-1
As to B3, the A450 in [1] turned out to be 0.047 A450; in [2], 0.049 A450; in test [8], 2.56 A450; in test [9], 2.36 A450; in test [3], 0.051 A450; in test [4], 0.062 A450. Further, the A450 in test [5] was found to be 0.056 A450; in test [10], 3.42 A450; in [6], 0.051 A450; in [11], 3.02 A450; in [7], 0.048 A450.

B4: rabbit monoclonal anti-mouse/human Id3, clone #BCH-4/#17-3 (antibody, V domains shown)
VH: QSVEESGGRLVTPGTPLTLTCTASGFSLSNVYIHWVRQAPGKGLEWIGYISDGDTARYATWAKGRFTISKTSSTTVNLKMTSLTTEDTATYFCARQGFNIWGPGTLVTVSL
VL: AVLTQTPSPVSAAVGGTVSISCQSSQSVWNNNWLSWFQQKPGQPPKLLIYETSKLESGVPSRFKGSGSGTQFTLTISDVQCDDAATYYCLGGYWTTSDNNVFGGGTEVVVK
notes: Rabbit IgG from a rabbit hybridoma; also called m/h Id3 MoAb 17-3; BCH-3/#17-3
Turning to B4, the A450 in test [1] came to 0.052 A450; in test [2], 0.048 A450; in [8], 2.91 A450; in [9], 2.6 A450; in test [3], 0.052 A450; in [4], 0.064 A450. For the same molecule, the A450 came to 0.054 A450 in test [5]; 3.62 A450 in test [10]; 0.045 A450 in test [6]; 3.32 A450 in [11]; 0.052 A450 in test [7].

B5: rabbit monoclonal anti-mouse/human Id3, clone #BCH-4/#42-1 (antibody, V domains shown)
VH: QSVEESGGRLVTPGTPLTLTCTASGFSLSSYYIHWVRQAPGKALEWIGYISDGGTTYYASWAKGRFTISKTSSTTVDLKMTSLTTEDTATYFCARQGFNIWGPGTLVTVSL
VL: AVLTQTPSPVSAAVGGTVTISCQSSQSVYNNNWLSWFQQKSGQPPKLLIYETSKLESGVPSRFKGSGSGTQFTLTIIDVQCDDAATYYCLGGYWSTSDNNIFGGGTEVVVK
notes: Rabbit IgG from a rabbit hybridoma; also called m/h Id3 MoAb 42-1
As for B5, the A450 in [1] was determined as 0.049 A450; in [2], 0.046 A450; in test [8], 2.87 A450; in test [9] it was 2.6 A450; in [3], 0.051 A450; in test [4] it was 0.063 A450. Also, the A450 turned out to be 0.051 A450 in [5]; 3.55 A450 in test [10]; 0.044 A450 in [6]; 3.31 A450 in test [11]; 0.054 A450 in [7].
